Assay results from patent publication US20260071182A1 (GAIA BIOMEDICINE, published 2026).

T1: Biotinylated Human 2B4/CD244/SLAMF4 Protein, Fc, Avitag (2B4-H82F0) (human) (UniProt Q9BZW8)
T1 sequence (biotinylated (Avitag), looked up): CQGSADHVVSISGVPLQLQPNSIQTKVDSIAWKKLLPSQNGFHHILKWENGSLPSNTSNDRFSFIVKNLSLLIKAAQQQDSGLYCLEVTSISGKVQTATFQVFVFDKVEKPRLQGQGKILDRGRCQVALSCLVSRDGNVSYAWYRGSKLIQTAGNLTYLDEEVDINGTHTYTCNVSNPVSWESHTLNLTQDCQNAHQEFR

T2: Human NKp30/NCR3/CD337 Protein, Fc Tag (NC3-H5259) (human, UniProt O14931 19-135)
T2 construct: Bought from ACROBiosystems, catalog NC3-H5259; not shown: Fc tag of the purchased protein
T2 sequence (looked up): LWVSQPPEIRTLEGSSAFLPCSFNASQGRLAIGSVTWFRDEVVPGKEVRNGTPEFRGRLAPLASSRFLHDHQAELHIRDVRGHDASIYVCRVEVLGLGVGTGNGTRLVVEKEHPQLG

T3: Biotinylated Human 2B4/CD244/SLAMF4 Protein, Fc, Avitag (2B4-H82F0) (human, UniProt Q9BZW8-2 22-221, biotinylated (Avitag))
T3 construct: Bought from ACROBiosystems, catalog 2B4-H82F0; not shown: Fc and Avitag of the purchased protein
T3 sequence (looked up): T1 sequence (biotinylated (Avitag), looked up)

B1: Mb-NKp46-CD-3 (designed binder)
chain: LEVVEASPTSIQISWDAPAVTVRYYVISYGETGRYKYHRRINVQGFTVPGSKSTATISGLKPGVDYTITVYAVTGTQWYVFNEAGDVAGYPISINYRTEIDKPSQ
notes: Monobody on human fibronectin type III domain scaffold, CD-FG library; also called NKp46 CD-FG No. 3; not shown: N-terminal residues of the expression construct (X7n7; the library has MPNR), linker, Sortase A recognition site and His tag
B2: Mb-NKp46-BC-2 (designed binder)
chain: LEVVEASPTSIQISWDAWTWLGYEYYWVRYYRITYGETGGNSPVQEFTVPGSKSTATISGLKPGVDYTITVYAVTWDSKPGAIGIPISINYRTEIDKPSQ
notes: Monobody on human fibronectin type III domain scaffold, BC-FG library; also called NKp46 BC-FG No. 2; not shown: N-terminal residues of the expression construct (X7n7; the library has MPNR), linker, Sortase A recognition site and His tag
B3: Mb-2B4-BC-2 (designed binder, part only; not given: N-terminal start, linker, sortase site, tag, not shown: small tags and cut ends)
chain, part: LEVVEASPTSIQISWDAQAYWFEYTWWVRYYRITYGETGGNSPVQEFTVPGSKSTATISGLKPGVDYTITVYAVTLEWVYDDQWTSGPISINYRTEIDKPSQ
B4: Mb-NKp46-BC-3 (designed binder)
chain: LEVVEASPTSIQISWDATYWDWGFRVRYYRITYGETGGNSPVQEFTVPGSKSTATISGLKPGVDYTITVYAVTWSWARRTHISWFPISINYRTEIDKPSQ
notes: Monobody on human fibronectin type III domain scaffold, BC-FG library; also called NKp46 BC-FG No. 3; not shown: N-terminal residues of the expression construct (X7n7; the library has MPNR), linker, Sortase A recognition site and His tag
B5: Mb-NKp30-BC-6 (designed binder)
chain: LEVVEASPTSIQISWDATDRNYDITYGMQVRYYRITYGETGGNSPVQEFTVPGSKSTATISGLKPGVDYTITVYAVTYWWDGYSYSEEAWYYPISINYRTEIDKPSQ
notes: Monobody on human fibronectin type III domain scaffold, BC-FG library; also called NKp30 BC-FG No. 6; not shown: N-terminal residues of the expression construct (X7n7; the library has MPNR), linker, Sortase A recognition site and His tag
B6: Mb-2B4-CD-3 (designed binder)
chain: LEVVEASPTSIQISWDAPAVTVRYYEILYGETGTPPWIHKGWVQYFTVPGSKSTATISGLKPGVDYTITVYAVTVTPYGRKWVGMNGWPISINYRTEIDKPSQ
notes: Monobody on human fibronectin type III domain scaffold, CD-FG library; also called 2B4 CD-FG No. 3; not shown: Sortase A recognition site, His tag and any linker (X8n8) at the C terminus; MPNR in the library
B7: Mb-NKp30-CD-9 (designed binder)
chain: LEVVEASPTSIQISWDAPAVTVRYYVITYGETGWSWESYWHGTYVQQFTVPGSKSTATISGLKPGVDYTITVYAVTTFMKDIPSYYPISINYRTEIDKPSQ
notes: Monobody on human fibronectin type III domain scaffold, CD-FG library; also called NKp30 CD-FG No. 9; not shown: N-terminal residues of the expression construct (X7n7; the library has MPNR), linker, Sortase A recognition site and His tag
B8: Mb-2B4-CD-1 (designed binder)
chain: LEVVEASPTSIQISWDAPAVTVRYYGIYYGETGTSPWVYNGYVQEFTVPGSKSTATISGLKPGVDYTITVYAVTDQYKSWNLEEFHPISINYRTEIDKPSQ
notes: Monobody on human fibronectin type III domain scaffold, CD-FG library; also called 2B4 CD-FG No. 1; not shown: Sortase A recognition site, His tag and any linker (X8n8) at the C terminus; MPNR in the library
B9: Mb-NKp46-CD-1 (designed binder)
chain: LEVVEASPTSIQISWDAPAVTVRYYDIYYGETGPGYYMWQRGVINVQAFTVPGSKSTATISGLKPGVDYTITVYAVTGQERAYGHPEHFPISINYRTEIDKPSQ
notes: Monobody on human fibronectin type III domain scaffold, CD-FG library; also called NKp46 CD-FG No. 1; not shown: N-terminal residues of the expression construct (X7n7; the library has MPNR), linker, Sortase A recognition site and His tag
B10: Mb-NKp30-BC-2 (designed binder)
chain: LEVVEASPTSIQISWDALWHYYGDQYWVRYYRITYGETGGNSPVQEFTVPGSKSTATISGLKPGVDYTITVYAVTWMYVPEYYFNPWPISINYRTEIDKPSQ
notes: Monobody on human fibronectin type III domain scaffold, BC-FG library; also called NKp30 BC-FG No. 2; not shown: N-terminal residues of the expression construct (X7n7; the library has MPNR), linker, Sortase A recognition site and His tag

What was measured:
Test in all cases: BLI (Octet RED96), target on sensor, monobody in five 2-fold dilutions
[1] = molecular target: T4, Biotinylated Human NKp46/NCR/CD335 Protein, Fc, Avitag (NC1-H82F9) (human, UniProt O76036 22-255, biotinylated (Avitag))
T4 construct: Bought from ACROBiosystems, catalog NC1-H82F9; not shown: Fc and Avitag of the purchased protein
Protocol: (§1) The binding abilities and specificities were examined by using an Octet® RED96 (ForteBio) with bio-layer interferometry. Measurement was performed with the following program: Dip for 50 seconds, Load for x seconds (until a signal of 1.0 nm (NKp46, 2B4) or 0.8 nm (Nkp30) was reached), Baseline for 60 seconds, Association for 600 seconds, and Dissociation for 600 seconds. At that time, the monobody concentrations were equally set to 40 nM. The acquired data were analyzed with ForteBio Data Analysis 10.0. Only samples for which binding ability and specificity were found were subjected to measurement of dissociation constants under different conditions. The measurement conditions are shown in a table given below. Dip, Baseline, Association, and Dissociation were performed for the same times as in examining binding ability and specificity. The monobodies were serially diluted from the highest concentration by a factor of 2 to prepare five concentrations for use in measurement.
(§2) The binding abilities and specificities of all the clones expressed and purified in Example 3 were examined, and the values of dissociation constants were measured. FIGS. 5 to 7 show the measurement results. In the top graphs in each of FIGS. 5 to 7, upper lines show results of measurement of the binding abilities of the monobodies with binding of a target to the tip of the sensor, and lower lines show results of examination on whether a monobody was bound only to the sensor without binding of a target to the sensor. Mb in the graphs is an abbreviation for monobody concentration. For any of the clones, the monobody was bound to the sensor when a target was fixed on the sensor, and no binding was found when a target was not fixed on the sensor. The bottom graphs in each of FIGS. 5 to 7 show results of measurement of dissociation constants for five concentrations.

[2] = molecular target: T1, Biotinylated Human 2B4/CD244/SLAMF4 Protein, Fc, Avitag (2B4-H82F0) (human)
[3] = molecular target: T2, Human NKp30/NCR3/CD337 Protein, Fc Tag …
Protocol: as §1, §2

[4] = molecular target: T3, Biotinylated Human 2B4/CD244/SLAMF4 …
Protocol: as §1, §2

T4 sequence (O76036 22-255): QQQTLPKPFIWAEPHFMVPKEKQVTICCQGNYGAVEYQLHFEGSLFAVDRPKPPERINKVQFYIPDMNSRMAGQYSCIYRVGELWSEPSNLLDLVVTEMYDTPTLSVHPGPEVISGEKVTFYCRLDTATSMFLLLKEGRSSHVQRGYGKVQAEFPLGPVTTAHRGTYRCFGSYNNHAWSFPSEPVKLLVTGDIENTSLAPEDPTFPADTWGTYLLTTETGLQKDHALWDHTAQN

Row | Binder | Kd [1] [nM] | koff [1] [s⁻¹] | kon [1] [M⁻¹ s⁻¹] | Kd [3] [nM] | koff [3] [s⁻¹] | kon [3] [M⁻¹ s⁻¹] | further results
1 | B1 | 0.98 | 7e-05 | 72000 | – | – | – | –
2 | B2 | 1.2 | 0.00047 | 380000 | – | – | – | –
3 | B3 | – | – | – | – | – | – | Kd [2]: 1 nM; koff [2]: 9.3e-05 s⁻¹; kon [2]: 92000 M⁻¹ s⁻¹
4 | B4 | < 0.01 | < 1e-06 | 100000 | – | – | – | –
5 | B5 | – | – | – | 0.27 | 0.00024 | 900000 | –
6 | B6 | – | – | – | – | – | – | Kd [4]: 1.5 nM; koff [4]: 0.00035 s⁻¹; kon [4]: 230000 M⁻¹ s⁻¹
7 | B7 | – | – | – | 0.35 | 0.00029 | 810000 | –
8 | B8 | – | – | – | – | – | – | Kd [4]: 2.8 nM; koff [4]: 0.0002 s⁻¹; kon [4]: 71000 M⁻¹ s⁻¹
9 | B9 | 0.14 | 7.2e-05 | 530000 | – | – | – | –
10 | B10 | – | – | – | 0.038 | 2.7e-05 | 720000 | –
